Measurements as given in patent US20140087995A1 (published 2014).
Numbered stars: 1 amine (or outer) side, 2 acyl side, 3 side chain; on linkers, the order of the positions; unused ones are H or OH. Bridge positions count the residues as written; N and C are the ends. Side chains are listed from the residue outwards. Ends that are not written are not given here. * marks the point of attachment. C20 diacid = O=C(O)CCCCCCCCCCCCCCCCCCC(=O)*; γGlu = O=C(O)[C@H](CCC(=O)[*:2])N[*:1]; AEEA = NCCOCCOCC(=O)O

The binders below were run against T1, human calcitonin receptor (human, UniProt P30988 25-474) (assay: cell-based or functional assay).
T1 sequence (looked up): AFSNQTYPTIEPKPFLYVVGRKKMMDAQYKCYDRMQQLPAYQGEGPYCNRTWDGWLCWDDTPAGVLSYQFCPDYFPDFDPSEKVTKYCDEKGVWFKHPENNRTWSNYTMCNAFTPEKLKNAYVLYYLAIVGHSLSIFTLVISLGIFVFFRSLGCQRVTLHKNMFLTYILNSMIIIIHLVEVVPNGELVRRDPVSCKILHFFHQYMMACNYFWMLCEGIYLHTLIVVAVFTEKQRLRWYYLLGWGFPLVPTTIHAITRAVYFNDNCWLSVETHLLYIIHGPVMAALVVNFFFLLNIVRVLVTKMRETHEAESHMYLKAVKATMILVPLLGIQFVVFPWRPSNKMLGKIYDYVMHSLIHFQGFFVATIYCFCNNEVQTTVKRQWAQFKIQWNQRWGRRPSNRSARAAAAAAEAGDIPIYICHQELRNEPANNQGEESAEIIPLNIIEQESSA

| Binder | hCTR funct. EC50 [nM] |
| --- | --- |
| K([AEEA-γGlu-C20 diacid])CNTATCATQRLANFLRHSSPNFGAIPSSTNVGHNTY-NH2 (disulfide 2-7; N-terminus assumed; SMILES CC[C@H](C)[C@H](NC(=O)[C@H](C)NC(=O)CNC(=O)[C@H](Cc1ccccc1)NC(=O)[C@H](CC(N)=O)NC(=O)[C@@H]1CCCN1C(=O)[C@H](CO)NC(=O)[C@H](CO)NC(=O)[C@H](Cc1c[nH]cn1)NC(=O)[C@H](CCCNC(=N)N)NC(=O)[C@H](CC(C)C)NC(=O)[C@H](Cc1ccccc1)NC(=O)[C@H](CC(N)=O)NC(=O)[C@H](C)NC(=O)[C@H](CC(C)C)NC(=O)[C@H](CCCNC(=N)N)NC(=O)[C@H](CCC(N)=O)NC(=O)[C@@H](NC(=O)[C@H](C)NC(=O)[C@@H]1CSSC[C@H](NC(=O)[C@@H](N)CCCCNC(=O)COCCOCCNC(=O)CC[C@H](NC(=O)CCCCCCCCCCCCCCCCCCC(=O)O)C(=O)O)C(=O)N[C@@H](CC(N)=O)C(=O)N[C@@H]([C@@H](C)O)C(=O)N[C@@H](C)C(=O)N[C@@H]([C@@H](C)O)C(=O)N1)[C@@H](C)O)C(=O)N1CCC[C@H]1C(=O)N[C@@H](CO)C(=O)N[C@@H](CO)C(=O)N[C@H](C(=O)N[C@@H](CC(N)=O)C(=O)N[C@H](C(=O)NCC(=O)N[C@@H](Cc1c[nH]cn1)C(=O)N[C@@H](CC(N)=O)C(=O)N[C@H](C(=O)N[C@@H](Cc1ccc(O)cc1)C(N)=O)[C@@H](C)O)C(C)C)[C@@H](C)O, also called compound 76) | 7.37 |
| K([AEEA-γGlu-C20 diacid])CNTATCATQRLAHFLRHSSPNFGAIPSSTNVGHNTY-NH2 (disulfide 2-7; N-terminus assumed; SMILES CC[C@H](C)[C@H](NC(=O)[C@H](C)NC(=O)CNC(=O)[C@H](Cc1ccccc1)NC(=O)[C@H](CC(N)=O)NC(=O)[C@@H]1CCCN1C(=O)[C@H](CO)NC(=O)[C@H](CO)NC(=O)[C@H](Cc1c[nH]cn1)NC(=O)[C@H](CCCNC(=N)N)NC(=O)[C@H](CC(C)C)NC(=O)[C@H](Cc1ccccc1)NC(=O)[C@H](Cc1c[nH]cn1)NC(=O)[C@H](C)NC(=O)[C@H](CC(C)C)NC(=O)[C@H](CCCNC(=N)N)NC(=O)[C@H](CCC(N)=O)NC(=O)[C@@H](NC(=O)[C@H](C)NC(=O)[C@@H]1CSSC[C@H](NC(=O)[C@@H](N)CCCCNC(=O)COCCOCCNC(=O)CC[C@H](NC(=O)CCCCCCCCCCCCCCCCCCC(=O)O)C(=O)O)C(=O)N[C@@H](CC(N)=O)C(=O)N[C@@H]([C@@H](C)O)C(=O)N[C@@H](C)C(=O)N[C@@H]([C@@H](C)O)C(=O)N1)[C@@H](C)O)C(=O)N1CCC[C@H]1C(=O)N[C@@H](CO)C(=O)N[C@@H](CO)C(=O)N[C@H](C(=O)N[C@@H](CC(N)=O)C(=O)N[C@H](C(=O)NCC(=O)N[C@@H](Cc1c[nH]cn1)C(=O)N[C@@H](CC(N)=O)C(=O)N[C@H](C(=O)N[C@@H](Cc1ccc(O)cc1)C(N)=O)[C@@H](C)O)C(C)C)[C@@H](C)O, also called compound 80) | 2.14 |
| K([AEEA-γGlu-C20 diacid])CNTATCATQRLAHFLRHSSPNFGAIPSSTPVGSNTY-NH2 (disulfide 2-7; N-terminus assumed; SMILES CC[C@H](C)[C@H](NC(=O)[C@H](C)NC(=O)CNC(=O)[C@H](Cc1ccccc1)NC(=O)[C@H](CC(N)=O)NC(=O)[C@@H]1CCCN1C(=O)[C@H](CO)NC(=O)[C@H](CO)NC(=O)[C@H](Cc1c[nH]cn1)NC(=O)[C@H](CCCNC(=N)N)NC(=O)[C@H](CC(C)C)NC(=O)[C@H](Cc1ccccc1)NC(=O)[C@H](Cc1c[nH]cn1)NC(=O)[C@H](C)NC(=O)[C@H](CC(C)C)NC(=O)[C@H](CCCNC(=N)N)NC(=O)[C@H](CCC(N)=O)NC(=O)[C@@H](NC(=O)[C@H](C)NC(=O)[C@@H]1CSSC[C@H](NC(=O)[C@@H](N)CCCCNC(=O)COCCOCCNC(=O)CC[C@H](NC(=O)CCCCCCCCCCCCCCCCCCC(=O)O)C(=O)O)C(=O)N[C@@H](CC(N)=O)C(=O)N[C@@H]([C@@H](C)O)C(=O)N[C@@H](C)C(=O)N[C@@H]([C@@H](C)O)C(=O)N1)[C@@H](C)O)C(=O)N1CCC[C@H]1C(=O)N[C@@H](CO)C(=O)N[C@@H](CO)C(=O)N[C@H](C(=O)N1CCC[C@H]1C(=O)N[C@H](C(=O)NCC(=O)N[C@@H](CO)C(=O)N[C@@H](CC(N)=O)C(=O)N[C@H](C(=O)N[C@@H](Cc1ccc(O)cc1)C(N)=O)[C@@H](C)O)C(C)C)[C@@H](C)O, also called compound 61) | 0.554 |
| K([AEEA-γGlu-C20 diacid])CNTATCATQRLAGFLRHSSPNFGAIPSSTPVGSNTY-NH2 (disulfide 2-7; N-terminus assumed; SMILES CC[C@H](C)[C@H](NC(=O)[C@H](C)NC(=O)CNC(=O)[C@H](Cc1ccccc1)NC(=O)[C@H](CC(N)=O)NC(=O)[C@@H]1CCCN1C(=O)[C@H](CO)NC(=O)[C@H](CO)NC(=O)[C@H](Cc1c[nH]cn1)NC(=O)[C@H](CCCNC(=N)N)NC(=O)[C@H](CC(C)C)NC(=O)[C@H](Cc1ccccc1)NC(=O)CNC(=O)[C@H](C)NC(=O)[C@H](CC(C)C)NC(=O)[C@H](CCCNC(=N)N)NC(=O)[C@H](CCC(N)=O)NC(=O)[C@@H](NC(=O)[C@H](C)NC(=O)[C@@H]1CSSC[C@H](NC(=O)[C@@H](N)CCCCNC(=O)COCCOCCNC(=O)CC[C@H](NC(=O)CCCCCCCCCCCCCCCCCCC(=O)O)C(=O)O)C(=O)N[C@@H](CC(N)=O)C(=O)N[C@@H]([C@@H](C)O)C(=O)N[C@@H](C)C(=O)N[C@@H]([C@@H](C)O)C(=O)N1)[C@@H](C)O)C(=O)N1CCC[C@H]1C(=O)N[C@@H](CO)C(=O)N[C@@H](CO)C(=O)N[C@H](C(=O)N1CCC[C@H]1C(=O)N[C@H](C(=O)NCC(=O)N[C@@H](CO)C(=O)N[C@@H](CC(N)=O)C(=O)N[C@H](C(=O)N[C@@H](Cc1ccc(O)cc1)C(N)=O)[C@@H](C)O)C(C)C)[C@@H](C)O, also called compound 71) | 0.527 |
| K([AEEA-γGlu-C20 diacid])CNTATCATQRLAHFLRHSSPNFGAIPSSTNVGPNTY-NH2 (disulfide 2-7; N-terminus assumed; SMILES CC[C@H](C)[C@H](NC(=O)[C@H](C)NC(=O)CNC(=O)[C@H](Cc1ccccc1)NC(=O)[C@H](CC(N)=O)NC(=O)[C@@H]1CCCN1C(=O)[C@H](CO)NC(=O)[C@H](CO)NC(=O)[C@H](Cc1c[nH]cn1)NC(=O)[C@H](CCCNC(=N)N)NC(=O)[C@H](CC(C)C)NC(=O)[C@H](Cc1ccccc1)NC(=O)[C@H](Cc1c[nH]cn1)NC(=O)[C@H](C)NC(=O)[C@H](CC(C)C)NC(=O)[C@H](CCCNC(=N)N)NC(=O)[C@H](CCC(N)=O)NC(=O)[C@@H](NC(=O)[C@H](C)NC(=O)[C@@H]1CSSC[C@H](NC(=O)[C@@H](N)CCCCNC(=O)COCCOCCNC(=O)CC[C@H](NC(=O)CCCCCCCCCCCCCCCCCCC(=O)O)C(=O)O)C(=O)N[C@@H](CC(N)=O)C(=O)N[C@@H]([C@@H](C)O)C(=O)N[C@@H](C)C(=O)N[C@@H]([C@@H](C)O)C(=O)N1)[C@@H](C)O)C(=O)N1CCC[C@H]1C(=O)N[C@@H](CO)C(=O)N[C@@H](CO)C(=O)N[C@H](C(=O)N[C@@H](CC(N)=O)C(=O)N[C@H](C(=O)NCC(=O)N1CCC[C@H]1C(=O)N[C@@H](CC(N)=O)C(=O)N[C@H](C(=O)N[C@@H](Cc1ccc(O)cc1)C(N)=O)[C@@H](C)O)C(C)C)[C@@H](C)O, also called compound 68) | 0.932 |
| K([AEEA-γGlu-C20 diacid])CNTATCATQRLAHFLRHSSPNFGAIPSSTNVGRNTY-NH2 (disulfide 2-7; N-terminus assumed; SMILES CC[C@H](C)[C@H](NC(=O)[C@H](C)NC(=O)CNC(=O)[C@H](Cc1ccccc1)NC(=O)[C@H](CC(N)=O)NC(=O)[C@@H]1CCCN1C(=O)[C@H](CO)NC(=O)[C@H](CO)NC(=O)[C@H](Cc1c[nH]cn1)NC(=O)[C@H](CCCNC(=N)N)NC(=O)[C@H](CC(C)C)NC(=O)[C@H](Cc1ccccc1)NC(=O)[C@H](Cc1c[nH]cn1)NC(=O)[C@H](C)NC(=O)[C@H](CC(C)C)NC(=O)[C@H](CCCNC(=N)N)NC(=O)[C@H](CCC(N)=O)NC(=O)[C@@H](NC(=O)[C@H](C)NC(=O)[C@@H]1CSSC[C@H](NC(=O)[C@@H](N)CCCCNC(=O)COCCOCCNC(=O)CC[C@H](NC(=O)CCCCCCCCCCCCCCCCCCC(=O)O)C(=O)O)C(=O)N[C@@H](CC(N)=O)C(=O)N[C@@H]([C@@H](C)O)C(=O)N[C@@H](C)C(=O)N[C@@H]([C@@H](C)O)C(=O)N1)[C@@H](C)O)C(=O)N1CCC[C@H]1C(=O)N[C@@H](CO)C(=O)N[C@@H](CO)C(=O)N[C@H](C(=O)N[C@@H](CC(N)=O)C(=O)N[C@H](C(=O)NCC(=O)N[C@@H](CCCNC(=N)N)C(=O)N[C@@H](CC(N)=O)C(=O)N[C@H](C(=O)N[C@@H](Cc1ccc(O)cc1)C(N)=O)[C@@H](C)O)C(C)C)[C@@H](C)O, also called compound 84) | 5.49 |
